According to PMC3954636:

Molecular target: hemagglutinin (HA) of human H7N9 influenza A virus A/Shanghai/2/2013 (influenza A virus A/Shanghai/2/2013 (H7N9))
Test: crystal structure

## hemagglutinin (HA) of human H7N9 influenza A virus A/Shanghai/2/2013 (natural protein)
  stoichiometry N: 3
